From patent publication US20190106502A1 come the findings set out here.

In this assay the target is CD20 (B-lymphocyte antigen CD20) (human) (UniProt P11836). In words: cell-based or functional assay.
CD20 (B-lymphocyte antigen CD20) (human), sequence (P11836 whole entry): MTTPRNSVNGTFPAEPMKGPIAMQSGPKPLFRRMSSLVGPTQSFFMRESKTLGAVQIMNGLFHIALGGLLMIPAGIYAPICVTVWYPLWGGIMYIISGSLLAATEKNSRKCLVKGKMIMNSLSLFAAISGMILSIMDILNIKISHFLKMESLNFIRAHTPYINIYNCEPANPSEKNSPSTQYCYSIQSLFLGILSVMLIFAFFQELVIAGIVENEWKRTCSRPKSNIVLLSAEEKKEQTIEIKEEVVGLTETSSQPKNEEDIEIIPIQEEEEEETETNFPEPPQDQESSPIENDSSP
In turn, “GA101-P151F P329G L234A L235A (antibody)” registered an EC50 (ng/ml) values of direct cell death induction using Z-138 (% total AnnV positive cells) of 133 ng/mL.

Consider “GA101-P151F hin del (on GA101 P329G L234A L235A backbone) (antibody)”, for which the EC50 (ng/ml) values of direct cell death induction using Z-138 (% total AnnV positive cells) was determined as 68.4 ng/mL.

For the substance “GA101-V11F P151F (on GA101 P329G L234A L235A backbone) (antibody)”, the EC50 (ng/ml) values of direct cell death induction using Z-138 (% total AnnV positive cells) was determined as 112 ng/mL.

For “GA101-V11F P151F hinge del (on GA101 P329G L234A L235A backbone) (antibody)”, the EC50 (ng/ml) values of direct cell death induction using Z-138 (% total AnnV positive cells) worked out at 171 ng/mL.

Consider GA101-V11F P329G L234A L235A (antibody), for which the EC50 (ng/ml) values of direct cell death induction using Z-138 (% total AnnV positive cells) was found to be 131 ng/mL.

“GA101-hinge del P329G L234A L235A (antibody)” gave an EC50 (ng/ml) values of direct cell death induction using Z-138 (% total AnnV positive cells) of 155 ng/mL.
